Measured values: PMC7794386, “Mechanism of filament formation in UPA-promoted CARD8 and NLRP1 inflammasomes” (Nature Communications, 2021)

B1: caspase-1^CARD (1-95, G20K), as it stands in the fusion m16 (domain or fragment, UniProt P29466 1-95, looked up)
chain: MADKVLKEKRKLFIRSMGEKTINGLLDELLQTRVLNKEEMEKVKRENATVMDKTRALIDSVIPKGAQACQICITYICEEDSYLAGTLGLSADQTS
notes: caspase-1, CARD, residues 1-95, type IIb mutant G20K; Joined on one chain with m17 through a 5x GSS linker; source: E. coli BL21 (DE3), purified as part of the fusion protein m16

Columns and labels:
[1] = target: CARD8^CARD (P446-L537, A452C), MBP tag cleaved (human) (UniProt Q9Y2G2); assay: negative stain EM of filament formation; purified MBP-fused protein cleaved with 3C protease for 3 h at 37 °C at different concentrations (0.1 to 30 µM), then negatively stained with 1% uranyl formate and imaged
[2] = target: the molecule itself; assay: SEC-MALS; Superdex 200 in 25 mM Tris-HCl pH 8.0, 150 mM NaCl, 2 mM DTT, three-angle light scattering and refractive index detectors, 0.5 mL/min
[3] = target: the molecule itself; assay: cryo-EM structure; ASC^CARD-caspase-1^CARD octamer; 25 mM Tris-HCl pH 8.0, 150 mM NaCl, 2 mM DTT; 3.9 Å map
[4] = target: B1; assay: as above; details: both partners purified
[5] = target: the molecule itself; assay: SEC; preparative SEC of amylose-purified His-MBP fusions (Superdex 200 for MBP-CARD, Superose 6 for MBP-UPA and MBP-NLRP1-CT); 25 mM Tris-HCl pH 7.5, 150 mM NaCl, 1 mM TCEP

| Molecule | binding result [3] | binding result [5] | other results |
| --- | --- | --- | --- |
| CARD8^CARD (P446-L537, A452C), MBP tag cleaved (from UniProt Q9Y2G2-5 446-537) (domain or fragment) |  |  | minimum concentration required to form filaments [1]: 15 µM |
| ASC^CARD (106-195, W169G)-5xGSS-caspase-1^CARD (1-95, G20K) fusion protein (other, ASC (apoptosis-associated speck-like protein containing a CARD), CARD, residues 106-195, type IIa mutant W169G; 5x GSS linker, written out from the printed '5XGSS'; caspase-1, CARD, residues 1-95, type IIb mutant G20K; Four fusion chains form an octamer of CARDs; also called ASC^CARD-caspase-1^CARD octamer; ASC^CARD-caspase-1^CARD fusion protein; source: E. coli BL21 (DE3), purified (Ni-NTA, TEV …)) SAAKPGLHFIDQHRAALIARVTNVEWLLDALYGKVLTDEQYQAVRAEPTNPSKMRKLFSFTPAGNWTCKDLLLQALRESQSYLVEDLERSGSSGSSGSSGSSGSSMADKVLKEKRKLFIRSMGEKTINGLLDELLQTRVLNKEEMEKVKRENATVMDKTRALIDSVIPKGAQACQICITYICEEDSYLAGTLGLSADQTS |  |  | stoichiometry N [2]: 4 |
| ASC^CARD (106-195, W169G), as it stands in the fusion m16 (domain or fragment, UniProt Q9ULZ3 106-195, looked up, ASC (apoptosis-associated speck-like protein containing a CARD), CARD, residues 106-195, type IIa mutant W169G; Joined on one chain with m18 through a 5x GSS linker; source: E. coli BL21 (DE3), purified as part of the fusion protein m16) SAAKPGLHFIDQHRAALIARVTNVEWLLDALYGKVLTDEQYQAVRAEPTNPSKMRKLFSFTPAGNWTCKDLLLQALRESQSYLVEDLERS | binds |  | binding result [4]: binds |
| B1 | binds |  |  |
| CARD8 His-MBP-3C-UPA (S297-P446), uncleaved (domain or fragment, human, UniProt Q9Y2G2-5 297-446, looked up, CARD8, human, UPA S297-P446; numbers count on: T60 isoform, UniProt Q9Y2G2-5; Made by a stop codon in the CARD8 His-MBP-3C-UPA-CARD plasmid; also called oligomeric MBP-UPA protein; source: E. coli BL21 (DE3), purified (amylose resin, Superose 6); not shown: His, N-terminal, kept; MBP, N-terminal, kept) SLMGILLRIASGTRLSIPITSNTLIYYHPHPEDIKFHLYLVPSDALLTKAIDDEEDRFHGVRLQTSPPMEPLNFGSSYIVSNSANLKVMPKELKLSYRSPGEIQHFSKFYAGQMKEPIQLEITEKRHGTLVWDTEVKPVDLQLVAASAPP |  | binds |  |
| NLRP1 His-MBP-3C-UPA (S1213-P1364), uncleaved (domain or fragment, human, UniProt Q9C000-1 1213-1364, looked up, NLRP1, human, UPA S1213-P1364, isoform 1 (UniProt Q9C000-1); also called oligomeric MBP-UPA protein; source: E. coli BL21 (DE3), purified (amylose resin, Superose 6); not shown: His, N-terminal, kept; MBP, N-terminal, kept) SPLGVLLKMIHNALRFIPVTSVVLLYHRVHPEEVTFHLYLIPSDCSIRKAIDDLEMKFQFVRIHKPPPLTPLYMGCRYTVSGSGSGMLEILPKELELCYRSPGEDQLFSEFYVGHLGSGIRLQVKDKKDETLVWEALVKPGDLMPATTLIPP |  | binds |  |
